Data reported in patent US7507799.
Blank lines part the entries; values can stand above or below the substance they belong to.

Key:
[1] = biological target: trk A on trk A-overexpressing PC12 cells; experiment: cell-based or functional assay
[2] = biological target: trk A (autophosphorylation assay of Example 5); experiment: cell-based or functional assay
[3] = biological target: p75 on vascular smooth muscle cell line (p75Ts-Tag-SMC); experiment: cell-based or functional assay
[4] = biological target: p75NTR on A875 cells (UniProt P08138); experiment: whole-cell competition against 1 nM 125I-NGF on cells expressing only p75 (A875 cells)
[5] = biological target: TrkA on 293 cells; experiment: whole-cell competition against 1 nM 125I-NGF on 293 cells expressing only trk A
[6] = test system: T1, rat BDNF secreted by adenovirus-infected 293T or endothelial cells (proforms of 30 kDa and 28 kDa)
T1 sequence: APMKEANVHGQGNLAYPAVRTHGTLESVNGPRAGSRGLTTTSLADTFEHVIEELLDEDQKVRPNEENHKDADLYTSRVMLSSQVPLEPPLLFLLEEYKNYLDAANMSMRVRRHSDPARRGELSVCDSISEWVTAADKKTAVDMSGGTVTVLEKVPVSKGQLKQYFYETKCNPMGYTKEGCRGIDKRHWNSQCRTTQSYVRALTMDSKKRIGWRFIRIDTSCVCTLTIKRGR

[7] = test system: His-tagged cleavage resistant pro-NGF (point mutant, K-R cleavage site at 120,121 mutated to A-A)

Sequence of commercial mature NGF (Enzo Products for Science, Farmingdale, N.Y.) (ligand) (P01139 122-241): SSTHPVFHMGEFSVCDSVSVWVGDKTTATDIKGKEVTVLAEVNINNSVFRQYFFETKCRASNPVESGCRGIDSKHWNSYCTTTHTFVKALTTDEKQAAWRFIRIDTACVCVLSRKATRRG
Sequence of plasmin (P00747 20-580): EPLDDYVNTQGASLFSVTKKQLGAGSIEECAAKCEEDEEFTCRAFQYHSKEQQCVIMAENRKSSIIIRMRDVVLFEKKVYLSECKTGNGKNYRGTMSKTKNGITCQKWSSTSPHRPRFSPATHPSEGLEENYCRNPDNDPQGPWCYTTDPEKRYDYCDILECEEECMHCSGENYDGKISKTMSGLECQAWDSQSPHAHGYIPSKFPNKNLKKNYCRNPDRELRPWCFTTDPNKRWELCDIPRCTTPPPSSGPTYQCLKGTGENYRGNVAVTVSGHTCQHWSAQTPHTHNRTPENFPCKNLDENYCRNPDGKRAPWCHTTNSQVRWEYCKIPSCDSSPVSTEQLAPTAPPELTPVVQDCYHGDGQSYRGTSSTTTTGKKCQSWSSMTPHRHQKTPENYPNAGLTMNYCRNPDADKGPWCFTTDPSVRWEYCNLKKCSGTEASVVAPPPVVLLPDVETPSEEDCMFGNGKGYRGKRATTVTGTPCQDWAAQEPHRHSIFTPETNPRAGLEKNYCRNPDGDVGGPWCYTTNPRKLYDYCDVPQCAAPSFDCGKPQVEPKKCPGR
Sequence of plasmin (P00747 581-810): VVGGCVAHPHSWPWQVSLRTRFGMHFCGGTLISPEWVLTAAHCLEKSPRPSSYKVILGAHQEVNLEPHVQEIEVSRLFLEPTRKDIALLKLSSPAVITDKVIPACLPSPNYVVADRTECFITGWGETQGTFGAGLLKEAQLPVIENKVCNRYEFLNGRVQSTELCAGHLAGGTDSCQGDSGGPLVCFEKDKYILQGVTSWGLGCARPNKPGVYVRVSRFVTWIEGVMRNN
Sequence of TrkA on 293 cells (P04629 33-796): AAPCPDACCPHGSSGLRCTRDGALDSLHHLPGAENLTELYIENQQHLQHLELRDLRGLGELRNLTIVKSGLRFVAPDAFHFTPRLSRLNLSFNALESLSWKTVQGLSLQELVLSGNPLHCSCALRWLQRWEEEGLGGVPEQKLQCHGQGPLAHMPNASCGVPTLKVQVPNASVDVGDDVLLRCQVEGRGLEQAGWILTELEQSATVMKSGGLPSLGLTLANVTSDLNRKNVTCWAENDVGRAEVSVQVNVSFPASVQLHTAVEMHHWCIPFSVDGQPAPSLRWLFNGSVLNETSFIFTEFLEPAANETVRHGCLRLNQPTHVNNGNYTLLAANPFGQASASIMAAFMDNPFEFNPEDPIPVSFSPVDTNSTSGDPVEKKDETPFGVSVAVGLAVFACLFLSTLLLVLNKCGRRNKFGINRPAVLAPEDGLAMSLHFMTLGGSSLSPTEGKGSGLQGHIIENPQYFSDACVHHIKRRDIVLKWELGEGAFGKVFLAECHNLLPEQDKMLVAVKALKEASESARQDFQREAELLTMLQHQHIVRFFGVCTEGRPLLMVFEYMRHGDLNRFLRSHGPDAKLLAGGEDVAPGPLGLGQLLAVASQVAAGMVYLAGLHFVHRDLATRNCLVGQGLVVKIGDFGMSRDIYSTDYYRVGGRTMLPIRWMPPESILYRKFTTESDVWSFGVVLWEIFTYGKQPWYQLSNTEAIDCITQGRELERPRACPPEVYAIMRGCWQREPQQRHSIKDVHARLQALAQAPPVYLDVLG
Sequence of p75NTR on A875 cells (P08138 29-427): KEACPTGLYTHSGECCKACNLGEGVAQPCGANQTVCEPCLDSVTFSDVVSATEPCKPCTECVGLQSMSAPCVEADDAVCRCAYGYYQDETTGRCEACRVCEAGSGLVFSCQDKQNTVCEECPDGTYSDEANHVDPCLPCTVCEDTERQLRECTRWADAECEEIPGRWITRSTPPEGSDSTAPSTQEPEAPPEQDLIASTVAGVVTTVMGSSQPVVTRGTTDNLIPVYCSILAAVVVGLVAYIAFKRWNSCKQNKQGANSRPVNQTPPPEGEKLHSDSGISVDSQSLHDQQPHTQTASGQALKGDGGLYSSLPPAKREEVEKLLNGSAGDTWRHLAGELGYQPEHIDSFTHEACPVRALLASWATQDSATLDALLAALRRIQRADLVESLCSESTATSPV
Sequence of commercial mature NGF (Enzo Products for Science, Farmingdale, N.Y.) (ligand; other documents disagree on this pair) (P01139 122-241): as the sequence (P01139 122-241) above

PC12 cell neuritogenesis [1]: 0.1 nM
trk A autophosphorylation [2]: 0.2 nM
Substance: His-tagged native NGF, completely processed to the mature form of 13.5 kDa (from UniProt P01139 122-241) (ligand)

TUNEL positive cells at 18 h (% TUNEL positive cells at 2 nM) [3]: 20
PC12 cell neuritogenesis [1]: 0.1 nM
trk A autophosphorylation [2]: 0.2 nM
IC50 [4]: 1 nM
Substance: commercial mature NGF (Enzo Products for Science, Farmingdale, N.Y.) (ligand)

IC50 [5]: 1.2 nM
Substance: commercial mature NGF (Enzo Products for Science, Farmingdale, N.Y.) (ligand; other documents disagree on this pair)

Substance: plasmin
proteolytic cleavage in endothelial media, Western blot [6]: In endothelial media, only plasmin and MMP-7 appeared to cleave the large proform
proteolytic cleavage, Western blot [7]: Pro-NGF was cleaved by plasmin to a 13 kD form
